Measurements from US20150307617A1.

Experiments:
[1] = target: human OX40 expressed on transfected BT-474 cells (fusion with 5' HSV glycoprotein D tag) (human) (UniProt P43489); experiment: flow cytometry, ACT35-PE staining of the BT474-human OX40 low clone
[2] = target: human OX40 expressed on transfected BT-474 cells (fusion with 5' HSV glycoprotein D tag) (human) (UniProt P43489); experiment: flow cytometry, ACT35-PE staining of the BT474-human OX40-high clone

human OX40 expressed on transfected BT-474 cells (fusion with 5' HSV glycoprotein D tag) (human), sequence (P43489 29-277): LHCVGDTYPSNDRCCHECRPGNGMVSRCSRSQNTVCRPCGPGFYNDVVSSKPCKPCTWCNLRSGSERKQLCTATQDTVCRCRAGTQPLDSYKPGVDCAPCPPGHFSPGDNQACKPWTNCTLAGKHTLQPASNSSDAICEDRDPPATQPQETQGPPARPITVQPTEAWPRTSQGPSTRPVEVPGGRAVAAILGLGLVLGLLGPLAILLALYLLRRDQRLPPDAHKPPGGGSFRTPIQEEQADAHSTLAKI

Q: Which MFI [1] does the source give for “anti-human OX40 (PE) (clone ACT35) (antibody)” here?
A: The MFI was 994 MFI.

Q: What about the MFI [2] of the same substance?
A: Its MFI is 5240 MFI.
